# Data taken from a protein production outcome set (Wang et al. 2014).
# Experiment: label from the status in PepcDB records
row,Sequence,protein production
1,MMKSLGSIRRSFAPWADPASKPFISVKNVTKKFGDFTAVDDLSLNIYTREFFALLGASGCGKSTLLRMLAGFEQPTSGEIILDGQSLAGIPPYRRPVNMMFQSYALFPHMTVENNVAFGLKQDGMPKADIAERVAQMLKLVKLEKFAKRKPHQLSGGQRQRVALARSLAKRPKVLLLDEPLGALDKKLREETQFELMDLQQELGLTFVVVTHDQEEAMTMADRIAVMSHGKVVQVATPAEIYEAPNSRFVADFIGDVNIFDGKVTSAEDGYIRVETTGGIPVRMASPEKPGNGAKAAVAIRPEKIRIGRQPPAHAPVNAAEGEIWDIGYLGDMTVFHIRLKDGKVVKASSLNAVRAVEDPLGYDQQVWISFGDDAGVVLKD,failed
2,MIPIHPVGGSQTPASSTAAAGTGDAVTSVFLQPGRISLPASPPLSLYVHVPWCVRKCPYCDFNSHAEPEAGIPEDRFLAAIRQDLEAALPMVWGRRVHTIFIGGGTPSLLSARGLDTLLSDIRMLLPVDADAEITMEANPGTFEAERFRSYRASGVNRLSIGIQSFNDTHLQALGRIHSAAEARAAIDIARAHFDNINLDLMFALPGQTLAECEADVEAALSFGTSHVSLYHLTLEPNTYFAKHPPALPDDDTAFAMQDWIHARLAAAGYEHYEVSAYARPGKRCKHNLNYWQFGDYLGIGPGAHGKLSFPHRVIRDMRHKHPETYLRQAETAGGATVVQEQREVDAADLPFEFMLNALRLTDGFPVTLFQERTGLPLRGIERELDAAERRGLLVHDHATIRPTELGQRFLNDLQALFLADDEN,failed
3,MIIHTLHRYILRNLLVGLAVGSVALIVLIWLINSLKFLDWFVNKGLSVATFLRLTLLLMPGFLTVFIPIALFAVVLFTYNRLAADRELIVMRAAGMGPWQLARPALALCAVLTGVGYWLTLSVVPAMEGAFEAIKYEVRGEVSSLVIKEGQFNQMKDGLIVYAGERAKDGRLIDLMIHDTTGKTSDLTVMAESGALVREGEGARILLINGNRQERNRQTGKVNFLYFDSYAVDLGGKAASTEMRFREERERPLSELISLKAGDRIDPDYPFTYEERHIRRMRMEAHLRLLRPLAHIGFLLIGLAAVLTGEFDRRGGNKRVILAVALVVLFQAGSLGAATVAKKSLDGLLLLDLMTLLPILVGWIWLVWPSERWGRRRLAPRRGRTAAPALGGGAGR,failed
4,MAKIHVLEKHVAELIAAGEVVERPSSVIKELVENSIDAGATTISVEIQRGGIAYMRVTDNGGGIAREDVPKAFLRNATSKVESAEDLDGIGTLGFRGEALASICAVSRVTLLTRTEEELAGTSYQIEGGEELALEDAGCAKGCTIVVRDLFYNTPARMKFLKKDVSEANAVAGVMDRAALSHPEISFRFVRDHKETLSTPGDRQLRSCIYAVYGKDFTAGLIPVDYAYNGIKVRGFISKPSAARPNRSMQHFFINGRFVKSKTAMVALEQAFKGSIMAGKFPSCVLHLSVPWEAVDVNVHPSKIEVRFLNEKPIFDAVYHGVKSALLSGDQRKEMILPRPKLDPPASQPEQIRLAAKPAIGSAAQETAEKEARLLTSQTEQAPNSSLGAYEKVVSSSAGRLAQPQQAPLGKAPDKAFPQTASGPAVAGTSHIGENAADKKPPSSLPGIGAAGRIPVPYEENEPEIYLPVKRQTAIPAVRDFISSPFSFSDEASKPKAAGEAPGDTGFEAAAADRGRKAEPKAQELSEEAAGEKPESSRQAAAAEPPREEAGLQPFGEKRQRLVGEAFRTYLIIEYGDDELLLIDKHAAHERILYEKLKKESGKSCAQYLLEPIPVTLDKNEYAAVLENQKLFWEAGFEVEDFGGGSVLVRSAPLSLEQEDIASSLMEIAGHLLENKTDMSTEKLDWLYHNIACRAAVKAGQITSDQELIALAVALRENPEIRYCPHGRPVSITLKKREIEKQFGRIQ,failed
5,MGVISAYAVVHERAAIIDPGTAKGAEIILDEIDRSWNVEYICPTHIHIDHGGGAARLAKALDAKIIVHPRGVKHVVNPEKLWEASKAVLGEVAEIYGKPESIDESKVIAVEDEQEFDLGGERLKVFHAPGHAPHMLVYYLTNSKVLFPADAVGMCFGGVVFPLTPPPFDADAALKTLKRLKGLKVDYVAFTHYGVVELEHHHHHH,failed
6,MKLDDLNLFRLVVENGSYTATSRKTMIPVATITRRIQALEDSVNLRLLNRHARKLSLTEAGERFYHECSPLLQRLTSTAEEITDDCRGASGKIKISAPYNLTKRMMMPMFNDFMKKYPDINIELTTENNADQLDPTEWDVIFRVGPQRDSSLIARKIGEVKDILVASQDYLAANPAPNHAEELSNHSLLKGYPLIKWTLINSKGESVVNVERGRFQANALNVVRSACSEGLGITLMPDVMIKEYIESGELLRVLPDWSANPRDIYMLYNHKDHLPEKVRLFIDFVIAYNIH,failed
7,MWDLNIKESTMTRNGKAKRPLPLAASVAMYAIAIILAAATAIGNVYANKYSDLISVYFNQPTSKVVSASNETTEHFTSDYASDDEREQALADMGTTILREGVTLLKNENGTLPLEATSKISVFGQDSVDSVYGGGGAGSIDTSKAQSLMDAFEQAGFDVNPTLTEFYTTGAGKDYRKTSTDAYGKGTFAVNEVPASAYTDDVKKSFASYNDAAIVVIGRSGSESQDLPTDKLASGYTYLQLDDDERAMLKMASDNFDKVVVLLNTQNPMELADLEDDSIDAVMWIGSLGQTGAGGVAEALNGTVNPSGHLPDTYAYDLKSAPSSANFGSYAIVNGTDRFTSSYMAYAEGIYVGYRYYETRYEDVVLGNEARSNYDYTKQVAYPFGYGLSYTDFTWSDYSMKKADGGFDISVKVTNTGKTAGKDVVQLYMQSPYTDYDKANGIEKASVELVGYAKTDTLKAGASETVTVHVDQESMKTYDSTGEGTYIMDAGDYYLAVGTDAHNALNNILAAKGKTTADGMTENGNAALAAKHTVHSQDNTTYAKSAATDEKISNQFDDVDLTTYDNSFTYLSRSDWTGSWPATYADGKWTASQKFLDALNIDTAQSEPEQKPTTDTDNPSYGKLNASMLMDADYADESWSALIGQMSVKELDQLVRIGGYATKSVSSTQLPATTDKDGPAGISSTLVGGESGMGYPSEIVIAATWNSDLAESFGKAIGEDSLALKVAVWYGPACNIHRNPYGGRAFEYFSEDSYLSGAMCAKVVAGAGSKGVVSTVKHFALNDQETNRMGGAIFANEQTIRQLYLRPFEMSVRDGGATAMMASMNRIGSRWTGGHKGLMTNTLRGEWGFNGFVVTDQASYSVFAYEDLREGLEAGTDLWLNTDAGLWKLPDDDMTDGVIANMQRAAHNISYAISRSNAMNGLSANSKIVKVTPLWRWGVYALDGVVTVGAVALIAIATLQILRRRKRDATVAAETGEPAANDGE,failed
8,MTIATIDIGGTGIKFASLTPDGKILDKTSISTPENLEDLLAWLDQRLSEQDYSGIAMSVPGAVNQETGVIDGFSAVPYIHGFSWYEALSSYQLPVHLENDANCVGLSELLAHPELENAACVVIGTGIGGAMIINGRLHRGRHGLGGEFGYMTTLAPAEKLNNWSQLASTGNMVRYVIEKSGHTDWDGRKIYQEAAAGNILCQEAIERMNRNLAQGLLNIQYLIDPGVISLGGSISQNPDFIQGVKKAVEDFVDAYEEYTVAPVIQACTYHADANLYGALVNWLQEEKQW,not failed
9,MALGHRCRRFGTDKITSRPLRRQPQENPMNIKQLITAALIASAAFATQAAPQKPVSAAQTAQHSAVWIDVRSEQEFSEGHLHNAVNIPVDQIVRRIYEAAPDKDTPVNLYCRSGRRAEAALQELKKAGYTNVANHGGYEDLLKKGMK,failed
10,VGRLDDLKRSPLFQNVPEDAMREALKVVTERNFQPDELVVEQDAEGEALHLVTTGVVRVSRVSLGGRERVLGDIYAPGVVGETAVLAHQERSASVRALTPVRTLMLHREHFELILRRHPRVLWNLAEMLARRVTFLNDELIAFGQNTEAALTHVFANLYRQRLAAGVPQPEVLPLGTQDIMARTSSSRETVSRVLKRLEAHNILEVSPRSVTLLDLAALEALSFEGAETD,not failed
11,MEKSSFAAANMTIMSEPTTPTSQAHDSGASANVIATVETEIRQTARFPTRWTAISSALVVLLCVLALILVPIPFVARSPGQTVNLLSTNERGKPMIQVDGLTTRHGEGEMRMTTVSITRADSRLSMAEALVAHLRADHDVLQREAIYPPGRSPQQVDADESYMMDTSERDAAVAALRAAGQPVTEMPMVSAVSAAGPAHGKLAPGDLIEKVDGKPMASVLDVGKAVRKHTVGDTVVFVVLRNSSVKTIAVTTVSSVSDRRAPAVGVTIDTGYRYTPTITYNIPGDIVGPSAGLAMALSIYQMVAPNDLIGSLRIAGTGGISPDGNVVAIGGIQEKIAGAERDGAKIFLVPAGNCRDISGVETSMRLVKVSSLKDAIAAIQKIRAGGTGIPHC,failed
12,MDNVIKLVPSRWVSESVLMSISGLKKNTIKTARETSWMEGLEYKHVAPDGQPYDNSMCFYNRDEIDKWIERQPAAISRKKSA,failed
13,MRVLAIRHVEIEDLGMMEDIFREKNWSFDYLDTPKGEKLERPLEEYSLVVLLGGYMGAYEEEKYPFLKYEFQLIEEILKKEIPFLGICLGSQMLAKVLGASVYRGKNGEEIGWYFVEKVSDNKFFREFPDRLRVFQWHGDTFDLPRRATRVFTSEKYENQGFVYGKAVGLQFHIEVGARTMKRWIEAYKDELEKKKIDPRLLLETAEREEKVLKGLLRSLLERMVES,not failed
14,KIGKHTIKFPIFQGGMGVGISWDELAGNVAKEGALGVISAVGTGYYKNMRFVERIVAKKPFEALNFYSKKALNEIFANARKICGNNPLGANILYAINDYGRVLRDSCEAGANIIITGAGLPTNMPEFAKDFSDVALIPIISSAKALKILCKRWSDRYKRIPDAFIVEGPLSGGHQGFKYEDCFKEEFRLENLVPKVVEASKEWGNIPIIAAGGIWDRKDIDTMLSLGASGVQMATRFLGTKECDAKVYADLLPTLKKEDILLIKSPVGYPARAINTGVIKRIEEGNAPKIACVSNCVAPCNRGEEAKKVGYCIADGLGRSYLGNREEGLYFTGANGYRVDKIISVHELIK,failed
15,MSSSTGALHWQTAQAALARRDLGVAGSALQALLEVEPTHVSARVLLAGTVLANGRMREAVAQLQLAARDVDDDVAMRCRVAQALLRVGAHRQLHALLRHPSVMQCRDGATLALLAHVHQSLGEHVDALAMMQRAQVCGFDGPDFRFFLAVQLQFNGRLDDAAQALEQTLALVPGYGRAALTRARLRRQTVSSNHVDQLRQQLQRSKPDSEDRAGLAFALYKELEDLGDTDAAWDALQHGNAVMHARLRHDADAEASLYARLGTLAEQGVFAAQASDADAVALQGPQPIFVLGLPRSGTTVLERMLGNHSQIVSAGELNDFGHQLRWGADQAGRSLLDAGLLQAFPTLDYTQIGARYLEQTQWRAGPARWYIDKLPANAVAIGAIARALPGALIVHLVREPMAVCFSNYRALFGDSYAYSYDVHTLARHYQAYHGLMAQWRAALPGRVIDVDYTQMVRDPSTVLQQLMARCGLDIEPGQSDITRNAAASATLSSVQVREGVHSRNVEHWRRYAMQLEPLRQALAEAGLIDAGLH,failed
16,SLSQTTNIKEQTDTGLAPPAPAITTNSAAIEEQANSSIRKLYHTLNTMPNTSMADRISQISAYFKGTKYILGSLGEGPNARYDQFPRYRVDGFDCDTYVNTVLSLALANSLESFQECLKHTRYKNGKRSYINRNHFTSIDWNNYNQKRGLLKDITFSIRNEKKQPVALYANALINKPQWYNHKTIDTIRLQKQDKNEQEKRLVELKAKGKTLETSLSNVPYIPFTALFSENKPNLHLFSQIPNGAVIEIIRPNWDLRQQIGTELDISHLGFAIWINNELFFRQASSQYGKVVDVSLIDYLDKARSSPTIKGINIQVVLPEKPVSNGCQLFDIR,not failed
17,MQQIWGSERRRTAIGRMALSVPARQALADRQLVAERTILDYGCGRGDDVRALQQLDCQVVGWDPYYRTDTQLVATDVVLLTYVLNVIEDPAERRQTLKQAWELTSTLLVVSARLTWEKSKVHGEGFGDGLLTSRQTFQHLYATSELREYVEQVTGAR,failed
